Results reported in paper PMC10671485.

Columns and labels:
Test in all cases: fluorescence anisotropy
[1] = system: POLRMT K402Q (acetyl mimic) (Homo sapiens); conditions: N=5; 20 mM Tris-HCl EDTA buffer (pH and salt not given), 3 nM labeled duplex, 0-20 nM POLRMT, 25 °C; fit with Hill slope
[2] = system: POLRMT T315E (phosphomimic) (Homo sapiens); conditions: N=5; 20 mM Tris-HCl EDTA buffer (pH and salt not given), 3 nM labeled duplex, 0-20 nM POLRMT, 25 °C; fit with Hill slope
[3] = system: POLRMT T993E (phosphomimic) (Homo sapiens); conditions: N=4; 20 mM Tris-HCl EDTA buffer (pH and salt not given), 3 nM labeled duplex, 0-20 nM POLRMT, 25 °C; fit with Hill slope
POLRMT WT (Homo sapiens) = conditions: no TFAM or TFB2M mentioned; N=7; 20 mM Tris-HCl EDTA buffer (pH and salt not given), 3 nM labeled duplex, 0-20 nM POLRMT, 25 °C; fit with Hill slope

## light strand promoter (LSP) duplex
[1]
  Kd: 3.02 nM
[2]
  Kd: 1.55 nM
[3]
  Kd: 2.87 nM
POLRMT WT (Homo sapiens)
  Kd: 3.45 nM
